Activity (units total purified (approx.)) and activity (units total purified) data for one substance are collected here from patent publication US20050158769.

In series [1] the test system is T1, MseI restriction endonuclease (native) (Micrococcus sp. NEB#446).
T1 sequence: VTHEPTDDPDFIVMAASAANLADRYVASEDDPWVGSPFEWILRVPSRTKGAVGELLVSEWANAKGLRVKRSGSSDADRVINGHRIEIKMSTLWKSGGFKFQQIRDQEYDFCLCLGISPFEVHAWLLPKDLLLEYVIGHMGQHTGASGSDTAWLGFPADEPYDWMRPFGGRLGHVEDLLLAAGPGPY
Briefly: cleavage_in_vitro. To be noted: native enzyme; substrate inferred from the unit assay.

Series [2] has as its system T2, MseI restriction endonuclease (R.MseI) (Micrococcus sp. NEB#446).
T2 sequence: T1 sequence
Briefly: cleavage_in_vitro. The conditions noted are these: NEBuffer 2 (50 mM NaCl, 10 mM MgCl2, 10 mM Tris-HCl, 1 mM DTT, pH 7.9) + BSA, 37 C; 1 unit digests 1 ug lambda DNA in 1 h.

On to lambda DNA, for which, in series [1], the activity (units total purified (approx.)) is 10000. Moreover, in series [2], the activity (units total purified) turned out to be 2.6e+07.
